In patent publication US20220025010A1 (ANTAG THERAPEUTICS, published 2022):
Read-outs that look alike come from different tables or passages of the source. *1 amine or outer side, *2 acyl side, *3 side chain or, on linkers, in order; H or OH if unused. Where no end group is shown, it is not given here. Side-chain parts run from the residue outwards. The star is where a group is joined. C18 diacid = O=C(O)CCCCCCCCCCCCCCCCC(=O)*; C16 diacid = O=C(O)CCCCCCCCCCCCCCC(=O)*; γGlu = O=C(O)[C@H](CCC(=O)[*:2])N[*:1]; AEEA = NCCOCCOCC(=O)O

T1: human GIP receptor (human, UniProt P48546 22-466)
T1 sequence (looked up): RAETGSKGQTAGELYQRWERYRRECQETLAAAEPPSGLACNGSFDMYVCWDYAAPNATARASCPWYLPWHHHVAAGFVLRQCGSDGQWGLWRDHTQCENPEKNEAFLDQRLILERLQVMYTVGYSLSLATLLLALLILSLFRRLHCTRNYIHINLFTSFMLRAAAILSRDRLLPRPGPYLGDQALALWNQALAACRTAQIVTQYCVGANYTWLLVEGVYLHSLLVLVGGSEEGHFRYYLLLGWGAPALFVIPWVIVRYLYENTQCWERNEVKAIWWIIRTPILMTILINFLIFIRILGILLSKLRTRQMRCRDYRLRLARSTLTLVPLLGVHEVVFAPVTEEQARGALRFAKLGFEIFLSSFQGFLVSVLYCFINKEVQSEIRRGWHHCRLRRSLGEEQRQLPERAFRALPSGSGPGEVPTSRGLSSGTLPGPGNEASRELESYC


Experiments:
human GIP receptor [1] = biological target: T1, human GIP receptor; assay: cell-based or functional assay
human GIP receptor [2] = biological target: T1, human GIP receptor; assay: cell-based or functional assay; remark: listed apart in the source

Binder	CisBio cAMP agonism % Efficacy (human GIP receptor [1]) [%]	CisBio cAMP antagonism % inhib (human GIP receptor [1]) [%]	CisBio cAMP antagonism IC50 (human GIP receptor [1]) [nM]	CisBio cAMP antagonism pIC50 (human GIP receptor [1])	DiscoveRx cAMP antagonism % inhib (human GIP receptor [1]) [%]	DiscoveRx cAMP antagonism IC50 (human GIP receptor [1]) [nM]	DiscoveRx cAMP antagonism log IC50 (human GIP receptor [1]) [log M]	CisBio cAMP antagonism % inhib (human GIP receptor [2]) [%]	CisBio cAMP antagonism IC50 (human GIP receptor [2]) [nM]	cAMP antagonism % inhib (human GIP receptor [2]) [%]	cAMP antagonism IC50 (human GIP receptor [2]) [nM]	DiscoveRx cAMP agonism Emax (human GIP receptor [1])
DYSIAMDKIK(C16 diacid)QQDFVNWLLAQK-NH2 (N-terminus assumed; SMILES CC[C@H](C)[C@H](NC(=O)[C@H](CO)NC(=O)[C@H](Cc1ccc(O)cc1)NC(=O)[C@@H](N)CC(=O)O)C(=O)N[C@@H](C)C(=O)N[C@@H](CCSC)C(=O)N[C@@H](CC(=O)O)C(=O)N[C@@H](CCCCN)C(=O)N[C@H](C(=O)N[C@@H](CCCCNC(=O)CCCCCCCCCCCCCCC(=O)O)C(=O)N[C@@H](CCC(N)=O)C(=O)N[C@@H](CCC(N)=O)C(=O)N[C@@H](CC(=O)O)C(=O)N[C@@H](Cc1ccccc1)C(=O)N[C@H](C(=O)N[C@@H](CC(N)=O)C(=O)N[C@@H](Cc1c[nH]c2ccccc12)C(=O)N[C@@H](CC(C)C)C(=O)N[C@@H](CC(C)C)C(=O)N[C@@H](C)C(=O)N[C@@H](CCC(N)=O)C(=O)N[C@@H](CCCCN)C(N)=O)C(C)C)[C@@H](C)CC) [AT356]	0	–	–	–	–	–	–	–	–	–	–	–
SGTFISDYSIAMDRIK([AEEA-AEEA-AEEA-γGlu-C16 diacid])QQDFVNWLLAQR-NH2 (N-terminus assumed; SMILES CC[C@H](C)[C@H](NC(=O)[C@H](CO)NC(=O)[C@H](Cc1ccc(O)cc1)NC(=O)[C@H](CC(=O)O)NC(=O)[C@H](CO)NC(=O)[C@@H](NC(=O)[C@H](Cc1ccccc1)NC(=O)[C@@H](NC(=O)CNC(=O)[C@@H](N)CO)[C@@H](C)O)[C@@H](C)CC)C(=O)N[C@@H](C)C(=O)N[C@@H](CCSC)C(=O)N[C@@H](CC(=O)O)C(=O)N[C@@H](CCCNC(=N)N)C(=O)N[C@H](C(=O)N[C@@H](CCCCNC(=O)COCCOCCNC(=O)COCCOCCNC(=O)COCCOCCNC(=O)CC[C@H](NC(=O)CCCCCCCCCCCCCCC(=O)O)C(=O)O)C(=O)N[C@@H](CCC(N)=O)C(=O)N[C@@H](CCC(N)=O)C(=O)N[C@@H](CC(=O)O)C(=O)N[C@@H](Cc1ccccc1)C(=O)N[C@H](C(=O)N[C@@H](CC(N)=O)C(=O)N[C@@H](Cc1c[nH]c2ccccc12)C(=O)N[C@@H](CC(C)C)C(=O)N[C@@H](CC(C)C)C(=O)N[C@@H](C)C(=O)N[C@@H](CCC(N)=O)C(=O)N[C@@H](CCCNC(=N)N)C(N)=O)C(C)C)[C@@H](C)CC) [AT383]	0	89	12.6	7.9	100	1	-8.9	89	12.6	100	1	–
SGTFISDYSIAMDRIK([AEEA-AEEA-γGlu-C18 diacid])QQDFVNWLLAQR-NH2 (N-terminus assumed; SMILES CC[C@H](C)[C@H](NC(=O)[C@H](CO)NC(=O)[C@H](Cc1ccc(O)cc1)NC(=O)[C@H](CC(=O)O)NC(=O)[C@H](CO)NC(=O)[C@@H](NC(=O)[C@H](Cc1ccccc1)NC(=O)[C@@H](NC(=O)CNC(=O)[C@@H](N)CO)[C@@H](C)O)[C@@H](C)CC)C(=O)N[C@@H](C)C(=O)N[C@@H](CCSC)C(=O)N[C@@H](CC(=O)O)C(=O)N[C@@H](CCCNC(=N)N)C(=O)N[C@H](C(=O)N[C@@H](CCCCNC(=O)COCCOCCNC(=O)COCCOCCNC(=O)CC[C@H](NC(=O)CCCCCCCCCCCCCCCCC(=O)O)C(=O)O)C(=O)N[C@@H](CCC(N)=O)C(=O)N[C@@H](CCC(N)=O)C(=O)N[C@@H](CC(=O)O)C(=O)N[C@@H](Cc1ccccc1)C(=O)N[C@H](C(=O)N[C@@H](CC(N)=O)C(=O)N[C@@H](Cc1c[nH]c2ccccc12)C(=O)N[C@@H](CC(C)C)C(=O)N[C@@H](CC(C)C)C(=O)N[C@@H](C)C(=O)N[C@@H](CCC(N)=O)C(=O)N[C@@H](CCCNC(=N)N)C(N)=O)C(C)C)[C@@H](C)CC) [AT384]	0	97	54.1	7.3	100	8	-8.1	97	54.1	100	8	–
SGTFISDYSIAMDRIK([AEEA-AEEA-AEEA-γGlu-C18 diacid])QQDFVNWLLAQR-NH2 (N-terminus assumed; SMILES CC[C@H](C)[C@H](NC(=O)[C@H](CO)NC(=O)[C@H](Cc1ccc(O)cc1)NC(=O)[C@H](CC(=O)O)NC(=O)[C@H](CO)NC(=O)[C@@H](NC(=O)[C@H](Cc1ccccc1)NC(=O)[C@@H](NC(=O)CNC(=O)[C@@H](N)CO)[C@@H](C)O)[C@@H](C)CC)C(=O)N[C@@H](C)C(=O)N[C@@H](CCSC)C(=O)N[C@@H](CC(=O)O)C(=O)N[C@@H](CCCNC(=N)N)C(=O)N[C@H](C(=O)N[C@@H](CCCCNC(=O)COCCOCCNC(=O)COCCOCCNC(=O)COCCOCCNC(=O)CC[C@H](NC(=O)CCCCCCCCCCCCCCCCC(=O)O)C(=O)O)C(=O)N[C@@H](CCC(N)=O)C(=O)N[C@@H](CCC(N)=O)C(=O)N[C@@H](CC(=O)O)C(=O)N[C@@H](Cc1ccccc1)C(=O)N[C@H](C(=O)N[C@@H](CC(N)=O)C(=O)N[C@@H](Cc1c[nH]c2ccccc12)C(=O)N[C@@H](CC(C)C)C(=O)N[C@@H](CC(C)C)C(=O)N[C@@H](C)C(=O)N[C@@H](CCC(N)=O)C(=O)N[C@@H](CCCNC(=N)N)C(N)=O)C(C)C)[C@@H](C)CC) [AT385]	3	70	43	7.4	100	4	-8.4	70	43	100	4	–
SGTFISDYSIAMDRIKQQDFVNWLLAQR (HELM PEPTIDE1{S.G.T.F.I.S.D.Y.S.I.A.M.D.R.I.K.Q.Q.D.F.V.N.W.L.L.A.Q.R.[am]}|PEPTIDE2{[O=C(O)CCCCCCCCCCCCCCC(=O)[*:2]].[gGlu]}$PEPTIDE1,PEPTIDE2,16:R3-2:R2$$$V2.0; N-terminus assumed; SMILES CC[C@H](C)[C@H](NC(=O)[C@H](CO)NC(=O)[C@H](Cc1ccc(O)cc1)NC(=O)[C@H](CC(=O)O)NC(=O)[C@H](CO)NC(=O)[C@@H](NC(=O)[C@H](Cc1ccccc1)NC(=O)[C@@H](NC(=O)CNC(=O)[C@@H](N)CO)[C@@H](C)O)[C@@H](C)CC)C(=O)N[C@@H](C)C(=O)N[C@@H](CCSC)C(=O)N[C@@H](CC(=O)O)C(=O)N[C@@H](CCCNC(=N)N)C(=O)N[C@H](C(=O)N[C@@H](CCCCNC(=O)CC[C@H](NC(=O)CCCCCCCCCCCCCCC(=O)O)C(=O)O)C(=O)N[C@@H](CCC(N)=O)C(=O)N[C@@H](CCC(N)=O)C(=O)N[C@@H](CC(=O)O)C(=O)N[C@@H](Cc1ccccc1)C(=O)N[C@H](C(=O)N[C@@H](CC(N)=O)C(=O)N[C@@H](Cc1c[nH]c2ccccc12)C(=O)N[C@@H](CC(C)C)C(=O)N[C@@H](CC(C)C)C(=O)N[C@@H](C)C(=O)N[C@@H](CCC(N)=O)C(=O)N[C@@H](CCCNC(=N)N)C(N)=O)C(C)C)[C@@H](C)CC) [AT504]	0	85	39.8	7.4	90	21	-7.7	–	–	–	–	–
GGTFISDYSIAMDRIKQQDFVNWLLAQR (HELM PEPTIDE1{G.G.T.F.I.S.D.Y.S.I.A.M.D.R.I.K.Q.Q.D.F.V.N.W.L.L.A.Q.R.[am]}|PEPTIDE2{[O=C(O)CCCCCCCCCCCCCCC(=O)[*:2]].[gGlu]}$PEPTIDE1,PEPTIDE2,16:R3-2:R2$$$V2.0; N-terminus assumed; SMILES CC[C@H](C)[C@H](NC(=O)[C@H](CO)NC(=O)[C@H](Cc1ccc(O)cc1)NC(=O)[C@H](CC(=O)O)NC(=O)[C@H](CO)NC(=O)[C@@H](NC(=O)[C@H](Cc1ccccc1)NC(=O)[C@@H](NC(=O)CNC(=O)CN)[C@@H](C)O)[C@@H](C)CC)C(=O)N[C@@H](C)C(=O)N[C@@H](CCSC)C(=O)N[C@@H](CC(=O)O)C(=O)N[C@@H](CCCNC(=N)N)C(=O)N[C@H](C(=O)N[C@@H](CCCCNC(=O)CC[C@H](NC(=O)CCCCCCCCCCCCCCC(=O)O)C(=O)O)C(=O)N[C@@H](CCC(N)=O)C(=O)N[C@@H](CCC(N)=O)C(=O)N[C@@H](CC(=O)O)C(=O)N[C@@H](Cc1ccccc1)C(=O)N[C@H](C(=O)N[C@@H](CC(N)=O)C(=O)N[C@@H](Cc1c[nH]c2ccccc12)C(=O)N[C@@H](CC(C)C)C(=O)N[C@@H](CC(C)C)C(=O)N[C@@H](C)C(=O)N[C@@H](CCC(N)=O)C(=O)N[C@@H](CCCNC(=N)N)C(N)=O)C(C)C)[C@@H](C)CC) [AT502]	13	65	293	6.5	85	52	-7.3	–	–	–	–	5
